Measurements taken from patent US20140120098A1 (DANSK UNIVERSITET, published 2014).

Molecular target: T1, acetylated BSA (bovine, UniProt P02769 25-607, acetylated (N-acetyl groups; positions not stated); 125I-labelled or Alexa Fluor 488 C5 maleimide-labelled in the uptake experiments)
T1 construct: also called NAc-BSA; N-acetyl bovine serum albumin
Experiment: ELISA, plates coated with acetylated BSA, 5 mM CaCl2

T1 sequence (P02769 25-607 limits assumed): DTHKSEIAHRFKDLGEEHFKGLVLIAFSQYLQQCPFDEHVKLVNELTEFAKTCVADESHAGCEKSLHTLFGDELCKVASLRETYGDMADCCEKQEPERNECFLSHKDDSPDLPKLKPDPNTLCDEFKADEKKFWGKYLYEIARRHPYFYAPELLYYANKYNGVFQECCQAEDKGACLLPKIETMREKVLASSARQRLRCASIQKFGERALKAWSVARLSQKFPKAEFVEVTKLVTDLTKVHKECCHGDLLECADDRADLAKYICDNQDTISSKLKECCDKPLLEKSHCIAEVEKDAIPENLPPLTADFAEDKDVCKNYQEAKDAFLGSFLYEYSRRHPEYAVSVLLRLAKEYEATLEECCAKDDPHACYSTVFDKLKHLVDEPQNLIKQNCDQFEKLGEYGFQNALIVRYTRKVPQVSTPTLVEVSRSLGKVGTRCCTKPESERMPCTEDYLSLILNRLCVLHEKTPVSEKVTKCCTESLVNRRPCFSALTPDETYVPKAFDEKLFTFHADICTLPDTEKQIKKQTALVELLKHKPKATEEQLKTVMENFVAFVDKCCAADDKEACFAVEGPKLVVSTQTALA

binding result | Binder
no binding | FIBCD1 FReD A432V (receptor) ATGSRPRDCLDVLLSGQQDDGVYSVFPTHYPAGFQVYCDMRTDGGGWTVFQRREDGSVNFFRGWDAYRDGFGRLTGEHWLGLKRIHALTTQAAYELHVDLEDFENGTAYARYGSFGVGLFSVDPEEDGYPLTVADYSGTAGDSLLKHSGMRFTTKDRDSDHSENNCAAFYRGAWWYRNCHTSNLNGQYLRGAHASYVDGVEWSSWTGWQYSLKFSEMKIRPVREDR
no binding | FIBCD1 FReD H415G (receptor) ATGSRPRDCLDVLLSGQQDDGVYSVFPTHYPAGFQVYCDMRTDGGGWTVFQRREDGSVNFFRGWDAYRDGFGRLTGEHWLGLKRIHALTTQAAYELHVDLEDFENGTAYARYGSFGVGLFSVDPEEDGYPLTVADYSGTAGDSLLKHSGMRFTTKDRDSDHSENNCAAFYRGAWWYRNCGTSNLNGQYLRGAHASYADGVEWSSWTGWQYSLKFSEMKIRPVREDR
